Assay results: publication PMC9510126, “Hydrophobicity is a key determinant in the activity of arginine-rich cell penetrating peptides” (Scientific Reports, 2022)
Entries after “also recorded” stand apart in the source; their conditions may differ. Ends that are not written are not given here.

Tests used:
[1] = C18 reverse phase HPLC hydrophobicity of (X)TAT and d(X)TAT peptides; format: physicochemical; settings: chromatographic, C18, 0–40% B over 20 min, 0.1% TFA (pH 2); ranking within the d(X)TAT series
Procedure: In order to assess the hydrophobicity contributed by each X group, the peptides were first analyzed by reverse phase HPLC using a C18 column, using gradients of buffer A (water/TFA 99.9:0.1) and buffer B (acetonitrile/water/TFA 89.9:10:0.1 v:v:v) (gradient of 0–40% B over 20 min). […] All d(X)TAT peptides eluted over a range of 10–35% acetonitrile. […] One caveat of this approach is that the buffer system used for peptide analysis is pH 2 (due to the presence of TFA, required to protonate residue side chains). However, pH 2 is not representative of the pH that CPPs may be exposed to when in contact with cells, either pH 7.2 outside the plasma membrane, or pH between 6.5 and 4.5 while inside acidic endosomes. In order to establish the relative hydrophobicities of d(X)TAT peptides at these pHs, we sought to use other techniques, including thin layer chromatography using C18, aluminum oxide or silica stationary phases. Unfortunately, the arginine-rich peptides could not be separated on these systems. To solve this problem, each individual X group was synthesized, using acetylated and amidated N and C-terminal positions to mimic the peptide backbone found in the d(X)TAT constructs (Fig. 1A, Figure S11). Each Ac-X-NH2 group was analyzed by HPLC and by RP18 TLC, using 40% acetonitrile and 60% PBS as mobile phase. The HPLC elutions of Ac-X-NH2 correlated with the HPLC elutions of their respective d(X)TAT counterparts (Fig. 1C). Similarly, the relative hydrophobicities of Ac-X-NH2 determined by TLC (measured as 1-Rf) at pH 4 or 8 were in good agreement with the results obtained by HPLC (Fig. 1D). […] In the case of DEAC, the protonation state of the fluorophore has, to our knowledge, not been characterized.
All rpHPLC retention times were analyzed using an Agilent HP 1200 series instrument on an analytical Phenomenex Luna Omega Polar C18 column (5 μm, 4.6 mm × 250 mm). The flow rate was 2 mL/min, and detection was at 214 nm. A binary solvent system was used comprising 99.9% H2O/0.1% TFA (solvent A) and 90% Acetonitrile/9.9% H2O/0.1% TFA (solvent B). […]

MDA-MB-231 cells = assay: Staining of endosomes with LysoTracker (puncta per cell); format: cell-based, human; settings: MDA-MB-231, 1 h with peptide (X = K(Ac), WW, FFLIP at 10, 1.5, 1.5 μM), LysoTracker Green DND-26 500 nM 5 min, biological triplicates
Procedure: Given that hydrophobicity of the d(X)TAT peptides appears to contribute to their membrane permeation activities, we next sought to establish whether this relationship could be recapitulated with membrane models, i.e. lipid bilayers. To establish which membrane system to test, we first aimed to test whether d(X)TAT peptides generally recapitulate the mechanism of cell entry previously determined with dfTAT. For this purpose, the delivery of TMR-k5 was performed in cells transfected with dominant-negative (DN) rab7(T22N), a protein that disrupts trafficking from early endosomes to late endosomes[29],[30]. For these experiments, d(WW)TAT and d(FFLIP)TAT were chosen as two “high activity/hydrophobicity” d(X)TAT representatives. […] In this case, approximately 5% of cells remained positive for TMR-k5 nuclear staining. […] To further probe the cell penetration mechanism, the number of endosomal organelles stained by Lysotracker in cells before and after delivery was quantified. The rationale behind this assay is that lysotracker accumulates in acidified organelles, typically late endosomes and lysosomes, that endosomal membrane leakage causes an increase of endosomal pH (presumably via leakage of luminal H^+ into the cytosol), and that, consequently, endosomes rendered potentially leaky by d(X)TAT peptides will not be stained by lysotracker.
For the quantification of acidic vesicles, cells were treated with LysoTracker Green DND-26 (500 nM) for 5 min. Alternatively, cells were pretreated with L-Leu-L-Leu methyl ester (LLOME; Sigma-Aldrich) incubated at 1 mM for 10 min, or bafilomycin (Sigma-Aldrich) at 1 µM for 4 h, and then stained with LysoTracker. Likewise, cells were pretreated with d(X)TAT peptides (X = K(Ac), WW, or FFLIP at 10, 1.5, and 1.5 μM) for 1 h. Cells were then washed an stained with LysoTracker immediately or after 12 h incubation in DMEM. For all conditions, fluorescence microscopy images were acquired using the 100× objective on an Olympus IX-81 microscope. ImageJ was used to calculate the number of LysoTracker-stained puncta per cell, as well as the area of each individual puncta. This analysis was performed for 50 cells imaged for each condition and reproduced in biological triplicates.

Substance: d(K(Ac))TAT: disulfide dimer of CXRKKRRQRRRG with X = lysine conjugated to an acetyl group (CK(Ac)RKKRRQRRRG-NH2; also: disulfide dimer)
- relative hydrophobicity of X group by C18 HPLC [1]: least hydrophobic; also recorded: lowest peptide on the hydrophobicity scale
- lysotracker stained endosomes (puncta per cell) immediately after incubation (MDA-MB-231 cells): did not affect lysotracker staining
